Molecular target: the molecule itself
Assay: crystal structure; sitting drop vapor diffusion at room temperature, 3.5 mg/ml protein with 1 mM GSH; 1.8-2.2 M NH4SO4, 0.2 M NaCl, 0.1 M sodium cacodylate pH 6.1-6.8; analog I soaked, analogs II and III co-crystallised; space group F23

B1: Leukotriene C4 synthase (human, wild type) (enzyme)
chain: MKDEVALLAAVTLLGVLLQAYFSLQVISARRAFRVSPPLTTGPPEFERVYRAQVNCSEYFPLFLATLWVAGIFFHEGAAALCGLVYLFARLRYFQGYARSAQLRLAPLYASARALWLLVALAALGLLAHFLPAALRAALLGRLRTLLPWA
notes: Leukotriene C4 synthase, human, wild type; integral membrane protein in dodecyl maltoside; Expression and purification 'essentially as described (15)'; The trimer arises by crystal symmetry (space group F23); also called LTC4S; LTC4 synthase
B1 was tested, and the “stoichiometry N” value was 3.
